Legend:
[1] = test system: HeLa Kyoto; experiment: melting temperature (median over replicates), in situ; higher = more thermally stable
[2] = test system: HeLa Kyoto; experiment: solubility in G1/S (NP-40 vs SDS abundance) (log2 ratio); higher = more soluble; conditions: cell cycle stage: G1/S
[3] = test system: HeLa Kyoto; experiment: thermal stability score vs G1/S (z-score of summed log2 fold changes over temperatures); higher = more thermally stable than in G1/S
[4] = test system: HeLa Kyoto; experiment: solubility change mitosis vs G1/S (difference of NP-40 vs SDS log2 ratios) (log2 ratio difference); higher = more soluble in mitosis
[5] = cell cycle stage: early G1 (4.5 h after nocodazole release)
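Wherever melting temperature (median over replicates), in situ is given: HeLa Kyoto cells synchronized by double thymidine or nocodazole block, proteins quantified by TMT10plex mass spectrometry, three independent biological replicates.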
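Wherever solubility change mitosis vs G1/S (difference of NP-40 vs SDS log2 ratios) is given: synchronized HeLa Kyoto cells (double thymidine block for G1/S, nocodazole release for mitosis), protein amounts in NP-40 versus SDS lysates quantified by mass spectrometry, three biological replicates.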
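Wherever solubility in G1/S (NP-40 vs SDS abundance) is given: HeLa Kyoto cells arrested at G1/S by double thymidine block, proteins quantified by TMT10plex mass spectrometry in mild NP-40 versus SDS extracts, three biological replicates.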
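Wherever thermal stability score vs G1/S (z-score of summed log2 fold changes over temperatures) is given: synchronized HeLa Kyoto cells, proteins quantified by TMT10plex mass spectrometry, three biological replicates, mitosis taken 0.5 h after nocodazole release, G1/S directly after double thymidine block.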

## MKLLARALRLCEFGRQASSRRLVAGQGCVGPRRGCCAPVQVVGPRADLPPCGACITGRIMRPDDANVAGNVHGGTILKMIEEAGAIISTRHCNSQNGERCVAALARVERTDFLSPMCIGEVAHVSAEITYTSKHSVEVQVNVMSENILTGAKKLTNKATLWYVPLSLKNVDKVLEVPPVVYSRQEQEEEGRKRYEAQKLERMETKWRNGDIVQPVLNPEPNTVSYSQSSLIHLVGPSDCTLHGFVHGGVTMKLMDEVAGIVAARHCKTNIVTASVDAINFHDKIRKGCVITISGRMTFTSNKSMEIEVLVDADPVVDSSQKRYRAASAFFTYVSLSQEGRSLPVPQLVPETEDEKKRFEEGKGRYLQMKAKRQGHAEPQP [ACOT7]
[1]; cell cycle stage: G1/S
  melting temperature: 58.9 °C
[1]; cell cycle stage: mitosis
  melting temperature: 59.2 °C
[2]
  solubility in G1/S (log2): 0.0352
[3]; [5]
  thermal stability score: -2.43
[3]; cell cycle stage: mitosis
  thermal stability score: -3.98
[4]
  solubility change mitosis (log2): -0.0718

## MRPGTGAERGGLMVSEMESHPPSQGPGDGERRLSGSSLCSGSWVSADGFLRRRPSMGHPGMHYAPMGMHPMGQRANMPPVPHGMMPQMMPPMGGPPMGQMPGMMSSVMPGMMMSHMSQASMQPALPPGVNSMDVAAGTASGAKSMWTEHKSPDGRTYYYNTETKQSTWEKPDDLKTPAEQLLSKCPWKEYKSDSGKPYYYNSQTKESRWAKPKELEDLEGYQNTIVAGSLITKSNLHAMIKAEESSKQEECTTTSTAPVPTTEIPTTMSTMAAAEAAAAVVAAAAAAAAAAAAANANASTSASNTVSGTVPVVPEPEVTSIVATVVDNENTVTISTEEQAQLTSTPAIQDQSVEVSSNTGEETSKQETVADFTPKKEEEESQPAKKTYTWNTKEEAKQAFKELLKEKRVPSNASWEQAMKMIINDPRYSALAKLSEKKQAFNAYKVQTEKEEKEEARSKYKEAKESFQRFLENHEKMTSTTRYKKAEQMFGEMEVWNAISERDRLEIYEDVLFFLSKKEKEQAKQLRKRNWEALKNILDNMANVTYSTTWSEAQQYLMDNPTFAEDEELQNMDKEDALICFEEHIRALEKEEEEEKQKSLLRERRRQRKNRESFQIFLDELHEHGQLHSMSSWMELYPTISSDIRFTNMLGQPGSTALDLFKFYVEDLKARYHDEKKIIKDILKDKGFVVEVNTTFEDFVAIISSTKRSTTLDAGNIKLAFNSLLEKAEAREREREKEEARKMKRKESAFKSMLKQAAPPIELDAVWEDIRERFVKEPAFEDITLESERKRIFKDFMHVLEHECQHHHSKNKKHSKKSKKHHRKRSRSRSGSDSDDDDSHSKKKRQRSESRSASEHSSSAESERSYKKSKKHKKKSKKRRHKSDSPESDAEREKDKKEKDRESEKDRTRQRSESKHKSPKKKTGKDSGNWDTSGSELSEGELEKRRRTLLEQLDDDQ [PRPF40A]
[1]; cell cycle stage: G1/S
  melting temperature: 47.1 °C
[1]; cell cycle stage: mitosis
  melting temperature: 48.8 °C
[2]
  solubility in G1/S (log2): -1.2
[3]; [5]
  thermal stability score: 1.36
[3]; cell cycle stage: mitosis
  thermal stability score: 6.53
[4]
  solubility change mitosis (log2): 0.633

## MAACRYCCSCLRLRPLSDGPFLLPRRDRALTQLQVRALWSSAGSRAVAVDLGNRKLEISSGKLARFADGSAVVQSGDTAVMVTAVSKTKPSPSQFMPLVVDYRQKAAAAGRIPTNYLRREIGTSDKEILTSRIIDRSIRPLFPAGYFYDTQVLCNLLAVDGVNEPDVLAINGASVALSLSDIPWNGPVGAVRIGIIDGEYVVNPTRKEMSSSTLNLVVAGAPKSQIVMLEASAENILQQDFCHAIKVGVKYTQQIIQGIQQLVKETGVTKRTPQKLFTPSPEIVKYTHKLAMERLYAVFTDYEHDKVSRDEAVNKIRLDTEEQLKEKFPEADPYEIIESFNVVAKEVFRSIVLNEYKRCDGRDLTSLRNVSCEVDMFKTLHGSALFQRGQTQVLCTVTFDSLESGIKSDQVITAINGIKDKNFMLHYEFPPYATNEIGKVTGLNRRELGHGALAEKALYPVIPRDFPFTIRVTSEVLESNGSSSMASACGGSLALMDSGVPISSAVAGVAIGLVTKTDPEKGEIEDYRLLTDILGIEDYNGDMDFKIAGTNKGITALQADIKLPGIPIKIVMEAIQQASVAKKEILQIMNKTISKPRASRKENGPVVETVQVPLSKRAKFVGPGGYNLKKLQAETGVTISQVDEETFSVFAPTPSAMHEARDFITEICKDDQEQQLEFGAVYTATITEIRDTGVMVKLYPNMTAVLLHNTQLDQRKIKHPTALGLEVGQEIQVKYFGRDPADGRMRLSRKVLQSPATTVVRTLNDRSSIVMGEPISQSSSNSQ [PNPT1]
[1]; cell cycle stage: G1/S
  melting temperature: 49.8 °C
[1]; cell cycle stage: mitosis
  melting temperature: 50 °C
[2]
  solubility in G1/S (log2): 0.0945
[3]; [5]
  thermal stability score: 0.177
[3]; cell cycle stage: mitosis
  thermal stability score: 1.84
[4]
  solubility change mitosis (log2): -0.154

## MALTSFLPAPTQLSQDQLEAEEKARSQRSRQTSLVSSRREPPPYGYRKGWIPRLLEDFGDGGAFPEIHVAQYPLDMGRKKKMSNALAIQVDSEGKIKYDAIARQGQSKDKVIYSKYTDLVPKEVMNADDPDLQRPDEEAIKEITEKTRVALEKSVSQKVAAAMPVRAADKLAPAQYIRYTPSQQGVAFNSGAKQRVIRMVEMQKDPMEPPRFKINKKIPRGPPSPPAPVMHSPSRKMTVKEQQEWKIPPCISNWKNAKGYTIPLDKRLAADGRGLQTVHINENFAKLAEALYIADRKAREAVEMRAQVERKMAQKEKEKHEEKLREMAQKARERRAGIKTHVEKEDGEARERDEIRHDRRKERQHDRNLSRAAPDKRSKLQRNENRDISEVIALGVPNPRTSNEVQYDQRLFNQSKGMDSGFAGGEDEIYNVYDQAWRGGKDMAQSIYRPSKNLDKDMYGDDLEARIKTNRFVPDKEFSGSDRRQRGREGPVQFEEDPFGLDKFLEEAKQHGGSKRPSDSSRPKEHEHEGKKRRKE [SNW1]
[1]; cell cycle stage: G1/S
  melting temperature: 52.3 °C
[1]; cell cycle stage: mitosis
  melting temperature: 50.8 °C
[2]
  solubility in G1/S (log2): -0.328
[3]; [5]
  thermal stability score: 0.202
[3]; cell cycle stage: mitosis
  thermal stability score: -3.38
[4]
  solubility change mitosis (log2): 0.482

## MEVPAAGRVPAEGAPTAAVAEVRCPGPAPLRLLEWRVAAGAAVRIGSVLAVFEAAASAQSSGASQSRVASGGCVRPARPERRLRSERAGVVRELCAQPGQVVAPGAVLVRLEGCSHPVVMKGLCAECGQDLTQLQSKNGKQQVPLSTATVSMVHSVPELMVSSEQAEQLGREDQQRLHRNRKLVLMVDLDQTLIHTTEQHCQQMSNKGIFHFQLGRGEPMLHTRLRPHCKDFLEKIAKLYELHVFTFGSRLYAHTIAGFLDPEKKLFSHRILSRDECIDPFSKTGNLRNLFPCGDSMVCIIDDREDVWKFAPNLITVKKYVYFQGTGDMNAPPGSRESQTRKKVNHSRGTEVSEPSPPVRDPEGVTQAPGVEPSNGLEKPARELNGSEAATPRDSPRPGKPDERDIWPPAQAPTSSQELAGAPEPQGSCAQGGRVAPGQRPAQGATGTDLDFDLSSDSESSSESEGTKSSSSASDGESEGKRGRQKPKAAPEGAGALAQGSSLEPGRPAAPSLPGEAEPGAHAPDKEPELGGQEEGERDGLCGLGNGCADRKEAETESQNSELSGVTAGESLDQSMEEEEEEDTDEDDHLIYLEEILVRVHTDYYAKYDRYLNKEIEEAPDIRKIVPELKSKVLADVAIIFSGLHPTNFPIEKTREHYHATALGAKILTRLVLSPDAPDRATHLIAARAGTEKVLQAQECGHLHVVNPDWLWSCLERWDKVEEQLFPLRDDHTKAQRENSPAAFPDREGVPPTALFHPMPVLPKAQPGPEVRIYDSNTGKLIRTGARGPPAPSSSLPIRQEPSSFRAVPPPQPQMFGEELPDAQDGEQPGPSRRKRQPSMSETMPLYTLCKEDLESMDKEVDDILGEGSDDSDSEKRRPEEQEEEPQPRKPGTRRERTLGAPASSERSAAGGRGPRGHKRKLNEEDAASESSRESSNEDEGSSSEADEMAKALEAELNDLM [CTDP1]
[1]; cell cycle stage: G1/S
  melting temperature: 49.2 °C
[1]; cell cycle stage: mitosis
  melting temperature: 50.6 °C
[2]
  solubility in G1/S (log2): 0.0911
[3]; [5]
  thermal stability score: 1.52
[3]; cell cycle stage: mitosis
  thermal stability score: 2.78
[4]
  solubility change mitosis (log2): -0.102

## MGRGWGFLFGLLGAVWLLSSGHGEEQPPETAAQRCFCQVSGYLDDCTCDVETIDRFNNYRLFPRLQKLLESDYFRYYKVNLKRPCPFWNDISQCGRRDCAVKPCQSDEVPDGIKSASYKYSEEANNLIEECEQAERLGAVDESLSEETQKAVLQWTKHDDSSDNFCEADDIQSPEAEYVDLLLNPERYTGYKGPDAWKIWNVIYEENCFKPQTIKRPLNPLASGQGTSEENTFYSWLEGLCVEKRAFYRLISGLHASINVHLSARYLLQETWLEKKWGHNITEFQQRFDGILTEGEGPRRLKNLYFLYLIELRALSKVLPFFERPDFQLFTGNKIQDEENKMLLLEILHEIKSFPLHFDENSFFAGDKKEAHKLKEDFRLHFRNISRIMDCVGCFKCRLWGKLQTQGLGTALKILFSEKLIANMPESGPSYEFHLTRQEIVSLFNAFGRISTSVKELENFRNLLQNIH [ERO1A]
[1]; cell cycle stage: G1/S
  melting temperature: 54.2 °C
[1]; cell cycle stage: mitosis
  melting temperature: 54.6 °C
[2]
  solubility in G1/S (log2): 0.338
[3]; [5]
  thermal stability score: 5.02
[3]; cell cycle stage: mitosis
  thermal stability score: 7.63
[4]
  solubility change mitosis (log2): -0.161

## MPRRKKKVKEVSESRNLEKKDVETTSSVSVKRKRRLEDAFIVISDSDGEEPKEENGLQKTKTKQSNRAKCLAKRKIAQMTEEEQFALALKMSEQEAREVNSQEEEEEELLRKAIAESLNSCRPSDASATRSRPLATGPSSQSHQEKTTDSGLTEGIWQLVPPSLFKGSHISQGNEAEEREEPWDHTEKTEEEPVSGSSGSWDQSSQPVFENVNVKSFDRCTGHSAEHTQCGKPQESTGRGSAFLKAVQGSGDTSRHCLPTLADAKGLQDTGGTVNYFWGIPFCPDGVDPNQYTKVILCQLEVYQKSLKMAQRQLLNKKGFGEPVLPRPPSLIQNECGQGEQASEKNECISEDMGDEDKEERQESRASDWHSKTKDFQESSIKSLKEKLLLEEEPTTSHGQSSQGIVEETSEEGNSVPASQSVAALTSKRSLVLMPESSAEEITVCPETQLSSSETFDLEREVSPGSRDILDGVRIIMADKEVGNKEDAEKEVAISTFSSSNQVSCPLCDQCFPPTKIERHAMYCNGLMEEDTVLTRRQKEAKTKSDSGTAAQTSLDIDKNEKCYLCKSLVPFREYQCHVDSCLQLAKADQGDGPEGSGRACSTVEGKWQQRLKNPKEKGHSEGRLLSFLEQSEHKTSDADIKSSETGAFRVPSPGMEEAGCSREMQSSFTRRDLNESPVKSFVSISEATDCLVDFKKQVTVQPGSRTRTKAGRGRRRKF [UIMC1]
[1]; cell cycle stage: G1/S
  melting temperature: 51.5 °C
[1]; cell cycle stage: mitosis
  melting temperature: 52.5 °C
[2]
  solubility in G1/S (log2): -0.219
[3]; [5]
  thermal stability score: 1.12
[3]; cell cycle stage: mitosis
  thermal stability score: 1.21
[4]
  solubility change mitosis (log2): 0.107

## MANVSKKVSWSGRDRDDEEAAPLLRRTARPGGGTPLLNGAGPGAARQSPRSALFRVGHMSSVELDDELLDPDMDPPHPFPKEIPHNEKLLSLKYESLDYDNSENQLFLEEERRINHTAFRTVEIKRWVICALIGILTGLVACFIDIVVENLAGLKYRVIKGNIDKFTEKGGLSFSLLLWATLNAAFVLVGSVIVAFIEPVAAGSGIPQIKCFLNGVKIPHVVRLKTLVIKVSGVILSVVGGLAVGKEGPMIHSGSVIAAGISQGRSTSLKRDFKIFEYFRRDTEKRDFVSAGAAAGVSAAFGAPVGGVLFSLEEGASFWNQFLTWRIFFASMISTFTLNFVLSIYHGNMWDLSSPGLINFGRFDSEKMAYTIHEIPVFIAMGVVGGVLGAVFNALNYWLTMFRIRYIHRPCLQVIEAVLVAAVTATVAFVLIYSSRDCQPLQGGSMSYPLQLFCADGEYNSMAAAFFNTPEKSVVSLFHDPPGSYNPLTLGLFTLVYFFLACWTYGLTVSAGVFIPSLLIGAAWGRLFGISLSYLTGAAIWADPGKYALMGAAAQLGGIVRMTLSLTVIMMEATSNVTYGFPIMLVLMTAKIVGDVFIEGLYDMHIQLQSVPFLHWEAPVTSHSLTAREVMSTPVTCLRRREKVGVIVDVLSDTASNHNGFPVVEHADDTQPARLQGLILRSQLIVLLKHKVFVERSNLGLVQRRLRLKDFRDAYPRFPPIQSIHVSQDERECTMDLSEFMNPSPYTVPQEASLPRVFKLFRALGLRHLVVVDNRNQVVGLVTRKDLARYRLGKRGLEELSLAQT [CLCN7]
[1]; cell cycle stage: G1/S
  melting temperature: 52.9 °C
[1]; cell cycle stage: mitosis
  melting temperature: 52.6 °C
[2]
  solubility in G1/S (log2): -0.189
[3]; [5]
  thermal stability score: 0.135
[3]; cell cycle stage: mitosis
  thermal stability score: -0.102
[4]
  solubility change mitosis (log2): -0.116
